# From patent US20120014876A1 (ACADEMISCH ZIEKENHUIS MAASTRICHT, published 2012)
# Bridges are numbered along the chain shown (N, C = ends). Where no end group is shown, it is not given here. rhodamine = not defined here; alkyl = not defined here
# B1: Peptide UM206 (peptide)
# peptide: Ac-CNKTSEGMDGCEL-NH2
# modifications: cysteine pairing not given here
# notes: Linear form, no disulfide bridge between the two cysteines; also called antagonist UM206
# B2: Peptide UM206(S-S) (peptide)
# peptide: Ac-CNKTSEGMDGCEL-NH2
# modifications: disulfide 1-11
# B3: Peptide UM207 (peptide)
# peptide: Ac-GIKECQYQFRHRRWNCSTVD-NH2
# modifications: cysteine pairing not given here
# B4: Wnt3a (ligand)
# chain: SYPIWWSLAVGPQYSSLGSQPILCASIPGLVPKQLRFCRNYVEIMPSVAEGIKIGIQECQHQFRGRRWNCTTVHDSLAIFGPVLDKATRESAFVHAIASAGVAFAVTRSCAEGTAAICGCSSRHQGSPGKGWKWGGCSEDIEFGGMVSREFADARENRPDARSAMNRHNNEAGRQAIASHMHLKCKCHGLSGSCEVKTCWWSQPDFRAIGDFLKDKYDSASEMVVEKHRESRGWVETLRPRYTYFKVPTERDLVYYEASPNFCEPNPETGSFGTRDRTCNVSSHGIDGCDLLCCGRGHNARAERRREKCRCVFHWCCYVSCQECTRVYDVHTCK
# B5: UM206 (12-13 EL = AA) (peptide)
# peptide: CNKTSEGMDGCAA-NH2
# modifications: cysteine pairing not given here
# B6: UM206 (1 C = A) (peptide)
# peptide: ANKTSEGMDGCEL
# B7: UM206 (2 N = A) (peptide)
# peptide: CAKTSEGMDGCEL-NH2
# modifications: cysteine pairing not given here
# B8: UM206 (8 M = A) (peptide)
# peptide: CNKTSEGADGCEL-NH2
# modifications: cysteine pairing not given here
# B9: UM206 (6 E = A) (peptide)
# peptide: CNKTSAGMDGCEL-NH2
# modifications: cysteine pairing not given here
# B10: UM206 (4 T = A) (peptide)
# peptide: CNKASEGMDGCEL-NH2
# modifications: cysteine pairing not given here
# B11: UM206 (12 E = A) (peptide)
# peptide: CNKTSEGMDGCAL-NH2
# modifications: cysteine pairing not given here
# B12: UM206 (7 G = A) (peptide)
# peptide: CNKTSEAMDGCEL-NH2
# modifications: cysteine pairing not given here
# B13: UM206 - (deletion of the C-terminal Glutamic acid and Leucine) (peptide)
# peptide: CNKTSEGMDGC-NH2
# modifications: cysteine pairing not given here
# B14: UM206 (13 L = A) (peptide)
# peptide: CNKTSEGMDGCEA-NH2
# modifications: cysteine pairing not given here
# B15: UM206 (C = C-alkyl) (peptide)
# peptide: C(alkyl)NKTSEGMDGC(alkyl)EL-NH2
# modifications: not fully specified (N-terminus); reading uncertain; also: alkyl group not given here
# B16: UM206 (10 G = A) (peptide)
# peptide: CNKTSEGMDACEL-NH2
# modifications: cysteine pairing not given here
# B17: UM206 (5 S = A) (peptide)
# peptide: CNKTAEGMDGCEL-NH2
# modifications: cysteine pairing not given here
# B18: peptide CNVSSHGIDGCDL (SEQ ID NO:18) (peptide)
# peptide: CNVSSHGIDGCDL-NH2
# modifications: cysteine pairing not given here
# B19: UM206 (4 T = A, 7 G = A, 9 D = A) (peptide)
# peptide: CNKASEAMAGCEL-NH2
# modifications: cysteine pairing not given here
# B20: UM206 (C = S) (peptide)
# peptide: SNKTSEGMDGSEL
# B21: UM206 (9 D = A) (peptide)
# peptide: CNKTSEGMAGCEL-NH2
# modifications: cysteine pairing not given here
# B22: UM206 (C = A) (peptide)
# peptide: ANKTSEGMDGAEL
# B23: UM206 (11 C = A) (peptide)
# peptide: CNKTSEGMDGAEL
# B24: UM206 (3 K = A) (peptide)
# peptide: CNATSEGMDGCEL-NH2
# modifications: cysteine pairing not given here
# B25: rhodamine-labeled UM206 (peptide)
# peptide: Ac-CNK(rhodamine)TSEGMDGCEL-NH2
# modifications: cysteine pairing not given here; reading uncertain
# notes: UM206 with rhodamine on Lys3; end groups as UM206 (Ac-, -NH2) not restated; also called UM206-rhodamine; UM206-Rhodamine
# Target: T1, rat frizzled-1 receptor (rat, UniProt Q08463 69-641)
# Experiment: cell-based or functional assay
# T1 sequence (Q08463 69-641): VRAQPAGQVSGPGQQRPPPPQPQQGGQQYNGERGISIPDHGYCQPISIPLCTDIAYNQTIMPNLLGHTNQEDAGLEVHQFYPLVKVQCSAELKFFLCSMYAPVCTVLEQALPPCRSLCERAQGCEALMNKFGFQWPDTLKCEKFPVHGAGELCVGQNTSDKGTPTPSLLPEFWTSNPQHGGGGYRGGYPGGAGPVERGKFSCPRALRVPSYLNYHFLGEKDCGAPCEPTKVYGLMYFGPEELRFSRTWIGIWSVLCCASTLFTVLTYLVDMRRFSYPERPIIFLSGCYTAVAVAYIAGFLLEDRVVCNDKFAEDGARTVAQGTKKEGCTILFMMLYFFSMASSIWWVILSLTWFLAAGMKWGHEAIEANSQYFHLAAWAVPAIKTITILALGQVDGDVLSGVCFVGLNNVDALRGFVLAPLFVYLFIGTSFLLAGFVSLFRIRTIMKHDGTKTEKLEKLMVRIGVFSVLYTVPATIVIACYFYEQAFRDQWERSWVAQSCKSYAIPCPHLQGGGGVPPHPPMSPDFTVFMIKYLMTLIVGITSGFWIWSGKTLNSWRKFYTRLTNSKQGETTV
Binder,"IC50, inhibition of Wnt3a (10^-9 M)-induced luciferase activity, two-binding-state fit, major binding site [nM]","IC50, inhibition of Wnt3a-induced luciferase activity [nM]","EC50, luciferase activity (amount of agonist that yields 50% of maximum activity) [nM]","IC50, inhibition of Wnt3a (10^-9 M)-induced luciferase activity, single binding site fit [nM]"
B1,2.1,1,,
B2,,,10,
B3,,,,40

# Target: T2, rat frizzled-2 receptor (rat, UniProt Q08464 29-570)
# Experiment: cell-based or functional assay
# T2 sequence (Q08464 29-570): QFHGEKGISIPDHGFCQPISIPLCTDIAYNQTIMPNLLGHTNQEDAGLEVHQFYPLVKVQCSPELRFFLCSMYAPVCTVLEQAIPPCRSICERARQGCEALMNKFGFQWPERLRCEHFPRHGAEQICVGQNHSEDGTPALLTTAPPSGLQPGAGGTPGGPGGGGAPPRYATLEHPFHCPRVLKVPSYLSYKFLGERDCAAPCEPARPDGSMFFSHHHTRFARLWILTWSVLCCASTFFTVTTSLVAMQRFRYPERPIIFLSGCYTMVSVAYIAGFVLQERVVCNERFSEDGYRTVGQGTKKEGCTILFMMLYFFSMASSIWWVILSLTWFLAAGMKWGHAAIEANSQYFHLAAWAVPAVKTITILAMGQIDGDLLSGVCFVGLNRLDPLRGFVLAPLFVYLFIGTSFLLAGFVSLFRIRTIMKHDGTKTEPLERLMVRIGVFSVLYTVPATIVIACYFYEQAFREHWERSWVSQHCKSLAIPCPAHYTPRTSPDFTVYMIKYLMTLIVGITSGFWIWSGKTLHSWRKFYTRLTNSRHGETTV
Binder,"fold increase of luciferase activity (TOPflash reporter, HEK cells) [fold]","IC50, inhibition of Wnt3a (10^-9 M)-induced luciferase activity, two-binding-state fit, high affinity site [nM]","IC50, inhibition of Wnt3a-induced luciferase activity [nM]","EC50, luciferase activity (amount of agonist that yields 50% of maximum activity) [nM]","IC50, inhibition of Wnt3a (10^-9 M)-induced luciferase activity, single binding site fit [nM]"
B4,12,,,,
B1,,0.0169,0.1,,
B2,,,,20,
B3,,,,,15.2

# Target: T1, rat frizzled-1 receptor
# Experiment: cell-based or functional assay
# Remark: another data set of the same source
row,Binder,"% of inhibition of Wnt3a-induced luciferase activity, peptide 1.10^-9 M [%]"
1,B5,66.8
2,B6,70.8
3,B7,68
4,B8,67.6
5,B9,70.8
6,B10,28.1
7,B11,65.9
8,B12,52.6
9,B1,72.2
10,B13,18
11,B14,65.9
12,B15,1
13,B16,69.9
14,B17,74.3
15,B18,45.3
16,B19,11.2
17,B20,0
18,B21,40.5
19,B22,0
20,B23,67.2
21,B24,70.8

# Target: T2, rat frizzled-2 receptor
# Experiment: cell-based or functional assay
# Remark: another data set of the same source
row,Binder,"% of inhibition of Wnt3a-induced luciferase activity, peptide 1.10^-9 M [%]"
1,B5,74.3
2,B6,82.6
3,B7,79.5
4,B8,85
5,B9,84.7
6,B10,59.4
7,B11,85.5
8,B12,63.1
9,B1,75.1
10,B13,61.2
11,B14,86.5
12,B15,12.4
13,B16,83.3
14,B17,87.3
15,B18,62.4
16,B19,17.5
17,B20,17
18,B21,60.5
19,B22,8.39
20,B23,84.9
21,B24,84.9

# Target: T3, mouse Fzd-1 (mouse, UniProt O70421 69-642)
# T3 construct: whole, on cells; also called mouse frizzled-1
# Experiment: fluorescence imaging of small intestine and kidney sections
# T3 sequence (O70421 69-642): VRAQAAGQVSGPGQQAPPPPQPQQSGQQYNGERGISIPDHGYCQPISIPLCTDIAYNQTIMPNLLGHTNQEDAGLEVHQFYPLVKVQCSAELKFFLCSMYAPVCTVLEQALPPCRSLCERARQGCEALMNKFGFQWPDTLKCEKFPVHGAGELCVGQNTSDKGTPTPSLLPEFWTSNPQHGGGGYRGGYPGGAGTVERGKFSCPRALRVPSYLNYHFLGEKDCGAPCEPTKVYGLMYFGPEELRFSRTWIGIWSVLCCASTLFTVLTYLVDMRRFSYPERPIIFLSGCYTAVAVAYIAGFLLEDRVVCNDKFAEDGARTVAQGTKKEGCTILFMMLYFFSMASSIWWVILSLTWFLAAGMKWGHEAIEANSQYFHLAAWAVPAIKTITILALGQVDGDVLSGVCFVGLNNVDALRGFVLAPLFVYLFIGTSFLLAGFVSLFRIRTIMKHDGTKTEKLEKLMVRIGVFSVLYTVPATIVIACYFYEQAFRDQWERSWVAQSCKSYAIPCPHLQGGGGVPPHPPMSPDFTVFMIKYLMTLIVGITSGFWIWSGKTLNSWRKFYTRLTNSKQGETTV
row,Binder,binding result
1,B25,binds

# Target: T4, mouse Fzd-2 (mouse, UniProt Q9JIP6 29-570)
# T4 construct: whole, on cells; also called mouse frizzled-2
# Experiment: rhodamine-labeled UM206 on kidney and small intestine sections
# T4 sequence (Q9JIP6 29-570): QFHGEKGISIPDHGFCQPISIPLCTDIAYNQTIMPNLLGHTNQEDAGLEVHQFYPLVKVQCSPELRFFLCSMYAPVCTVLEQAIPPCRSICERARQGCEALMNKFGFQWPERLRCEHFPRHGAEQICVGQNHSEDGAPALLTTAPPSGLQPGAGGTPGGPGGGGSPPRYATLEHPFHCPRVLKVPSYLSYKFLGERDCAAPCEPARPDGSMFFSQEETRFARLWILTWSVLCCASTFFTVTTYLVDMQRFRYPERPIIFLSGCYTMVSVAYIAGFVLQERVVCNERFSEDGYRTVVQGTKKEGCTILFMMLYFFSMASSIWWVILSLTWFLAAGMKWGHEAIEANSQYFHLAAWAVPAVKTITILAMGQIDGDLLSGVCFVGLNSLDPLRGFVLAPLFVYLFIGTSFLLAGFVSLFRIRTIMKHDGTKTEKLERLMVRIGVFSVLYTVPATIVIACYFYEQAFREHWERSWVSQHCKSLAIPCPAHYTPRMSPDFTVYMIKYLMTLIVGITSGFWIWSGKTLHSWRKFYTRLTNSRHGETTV
row,Binder,binding result
1,B25,binds

# Target: T2, rat frizzled-2 receptor
# Experiment: inferred by the filing from inhibition curves of Wnt3a-induced luciferase activity in transfected HEK293-superTOPflash cells
# Description: To determine the inhibitory constant of UM206-8, HEK293-superTOPflash cells were transfected with either rFzd-1 or -2 and incubated with Wnt3a (10⁻⁹M) in the presence of increasing concentrations of either of the peptides (FIG. 15). For UM206, a biphasic inhibition curve was observed that was best fitted with a two-binding-state model.
row,Binder,fold higher affinity than to rFzd-1 [fold]
1,B1,~100
